In PMC2172679:

Biological target: p150^Glued subunit of dynactin (endogenous in melanophore extracts) (Xenopus laevis (endogenous in melanophores)) (UniProt Q6PCJ1)
Assay: co-IP

Sequence of UniProt Q6PCJ1 (Q6PCJ1 whole entry): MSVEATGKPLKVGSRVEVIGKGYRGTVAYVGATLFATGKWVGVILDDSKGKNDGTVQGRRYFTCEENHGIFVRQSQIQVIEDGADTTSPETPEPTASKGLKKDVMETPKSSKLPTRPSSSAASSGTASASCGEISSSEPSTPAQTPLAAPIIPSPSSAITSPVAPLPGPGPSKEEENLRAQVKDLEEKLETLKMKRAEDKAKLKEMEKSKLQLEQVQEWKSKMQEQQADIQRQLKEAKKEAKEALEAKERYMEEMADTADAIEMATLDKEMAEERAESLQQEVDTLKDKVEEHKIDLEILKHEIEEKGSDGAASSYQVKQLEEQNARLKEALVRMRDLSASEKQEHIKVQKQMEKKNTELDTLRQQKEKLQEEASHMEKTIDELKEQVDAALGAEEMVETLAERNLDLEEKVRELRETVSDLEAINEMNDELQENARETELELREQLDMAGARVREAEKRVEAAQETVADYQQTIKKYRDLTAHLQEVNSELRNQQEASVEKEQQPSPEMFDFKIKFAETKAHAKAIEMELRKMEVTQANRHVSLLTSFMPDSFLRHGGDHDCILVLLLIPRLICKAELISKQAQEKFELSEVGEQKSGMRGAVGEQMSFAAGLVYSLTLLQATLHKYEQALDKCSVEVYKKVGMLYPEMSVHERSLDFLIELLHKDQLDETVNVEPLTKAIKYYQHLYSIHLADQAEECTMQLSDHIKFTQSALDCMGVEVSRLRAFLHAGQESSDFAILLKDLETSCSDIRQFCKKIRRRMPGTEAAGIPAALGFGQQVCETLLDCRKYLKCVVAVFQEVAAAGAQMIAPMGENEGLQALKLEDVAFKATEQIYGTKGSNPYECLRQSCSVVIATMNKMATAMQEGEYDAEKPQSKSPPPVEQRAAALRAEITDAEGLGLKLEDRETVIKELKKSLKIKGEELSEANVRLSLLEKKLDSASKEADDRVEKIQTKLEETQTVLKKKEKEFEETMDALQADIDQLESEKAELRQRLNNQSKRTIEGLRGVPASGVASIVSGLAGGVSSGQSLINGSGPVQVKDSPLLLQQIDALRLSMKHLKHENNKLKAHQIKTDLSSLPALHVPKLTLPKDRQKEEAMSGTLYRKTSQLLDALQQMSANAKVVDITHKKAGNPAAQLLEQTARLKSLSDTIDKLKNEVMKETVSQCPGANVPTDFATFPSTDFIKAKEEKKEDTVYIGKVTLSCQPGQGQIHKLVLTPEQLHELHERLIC

With “kinesin II (Xenopus, endogenous in melanophore extracts) (complex)” as the substance, how does the percent of the total pool co-precipitated read?
Its percent of the total pool co-precipitated is 1%.
